According to the supplement of paper PMC9732359:
± gives the uncertainty stated by the source.

experiment: protein stability index of a GFP-peptide fusion (yeast GPS) (PSI 1-4); higher = more stable; sorted into four equal gates, so the index is relative within each strain; details: pdr5∆
Summary of the method: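 Sequencing reads from sorted gates were used to score each peptide. The library consisted of tiled 17-residue yeast protein peptides fused downstream of GFP on a Cherry-expressing plasmid, pooled and carried in yeast. Mid-log cultures in leucine-free medium were split into four equal gates by GFP/Cherry ratio, and each gate's plasmids were PCR-amplified and Illumina-sequenced. The protein stability index adds up, over all gates, the read frequency multiplied by the gate number.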

| Sequence | protein stability index |
| --- | --- |
| IKKKRKELFEKTFDYVS [SMC1] | 3.07 ± 0.099 |
| IKKPKTYKYPSLKGVDP [RPL29] | 3.62 ± 0.2 |
| IKLVKQNDELKFQGVLE [RPC34] | 3.53 ± 0.12 |

same assay, conditions: san1∆

| Sequence | protein stability index |
| --- | --- |
| IEKSRLFSEKTIRYLMQ [SNF6] | 2.28 ± 0.084 |
| IEKWTANLLPARQFGYV [RPS22A] | 1.8 ± 0.15 |
| IERYPLKVTKKHGAKKV [RPL27A] | 3.54 ± 0.087 |
| IESIRSCKDSQLKWAQN [YIL149C/MLP2] | 2.75 ± 0.053 |
| IEVTIGIDQYSFNVKEN [AAR2] | 2.58 ± 0.047 |
| IFEISLQRKDYTSIVQC [YML103C/NUP188] | 2.05 ± 0.12 |
| IFFNIPLVAHLGLYVGV [YJL039C/NUP192] | 1.27 ± 0.1 |
| IFLKRKDFTNKNLIQLI [SRB8] | 1.28 ± 0.086 |
| IFNSGKMIILDKLLKRL [ISW2] | 1.55 ± 0.1 |
| IFSFHQDSIFQRIIADL [SRB8] | 2.24 ± 0.081 |
| IFTCQIMNLITNEPCGA [RPN4] | 2.36 ± 0.21 |
| IGEGAKLVRDAFALAKE [RPT5] | 3.3 ± 0.093 |
| IGESARIIREMFAYAKE [RPT4] | 2.04 ± 0.063 |
| IGFITSGTYHLNCGNGM [POP1] | 2.09 ± 0.093 |
| IGLLNKSKSSLDGKFSL [RPN2] | 2.5 ± 0.14 |
| IGQLIGEVMKELSEEKY [RPT4] | 3.44 ± 0.067 |
| IGSTSKRPIESGTSSDP [YIL149C/MLP2] | 3.17 ± 0.11 |
| IGTINSIVHINSQERVQ [SIR2] | 2.12 ± 0.05 |
| IGTKRFDSEKSGDREVQ [RPT5] | 2.8 ± 0.26 |
| IGVETGSEPLIQQVVEY [PRP28] | 2.95 ± 0.067 |

| Sequence | protein stability index |
| --- | --- |
| IHALAAKLLQENDTTLV [FAS1] | 2.86 ± 0.12 |
| IHFADVAHITTKSPAYP [RGR1] | 2.55 ± 0.045 |
| IHFREHQSELIIKQTVH [YMR129W/POM152] | 2.48 ± 0.097 |
| IHIQSKENYPWELYTDF [POP3] | 2.69 ± 0.12 |
| IHNTKLPAYSGEIGDFF [POP1] | 3.1 ± 0.047 |
| IHQYLFQEGVVVAKKDF [RPS10A] | 1.93 ± 0.089 |
| IIESHLIQLQNIFKAEM [CSN9] | 2.85 ± 0.088 |
| IIKQTVHPIPDVAFADG [YMR129W/POM152] | 2.77 ± 0.046 |
| IILSIDEHHESFELKEE [RRP6] | 3.08 ± 0.08 |
| IIMHKDVEIGRMPIMLR [RET1] | 2.98 ± 0.079 |
| IINFGEIEQNTELLDEF [RPN10] | 3.23 ± 0.07 |
| IIQPFLDNSKMDYHFIF [RGR1] | 2.22 ± 0.049 |
| IITQYVFESLEINNLIQ [ARP9] | 2.8 ± 0.12 |
| IIYHTTFSWLNAELLDY [YLR018C/POM34] | 2.56 ± 0.092 |
| IIYPRSQTTLVQFGLNE [ARP9] | 2.03 ± 0.12 |
| IKIGIRVMKSLSINEKD [YCG1] | 1.36 ± 0.2 |
| IKIKSLEYEISKLKKET [YIL149C/MLP2] | 2.99 ± 0.075 |
| IKKKRKELFEKTFDYVS [SMC1] | 3.09 ± 0.12 |
| IKLVKQNDELKFQGVLE [RPC34] | 3.37 ± 0.051 |

same assay, conditions: ubr1∆

| Sequence | protein stability index |
| --- | --- |
| IEKSRLFSEKTIRYLMQ [SNF6] | 1.86 ± 0.055 |
| IEKWTANLLPARQFGYV [RPS22A] | 2.14 ± 0.17 |
| IERYPLKVTKKHGAKKV [RPL27A] | 3.23 ± 0.1 |
| IESIRSCKDSQLKWAQN [YIL149C/MLP2] | 2.95 ± 0.053 |
| IEVTIGIDQYSFNVKEN [AAR2] | 2.76 ± 0.056 |
| IFEISLQRKDYTSIVQC [YML103C/NUP188] | 1.88 ± 0.052 |
| IFFNIPLVAHLGLYVGV [YJL039C/NUP192] | 1.33 ± 0.048 |
| IFIATQLEKKIRFVCLS [BRR2] | 1.49 ± 0.074 |
| IFLKRKDFTNKNLIQLI [SRB8] | 1.4 ± 0.041 |
| IFNSGKMIILDKLLKRL [ISW2] | 2.17 ± 0.046 |
| IFSFHQDSIFQRIIADL [SRB8] | 2.41 ± 0.035 |
| IGEGAKLVRDAFALAKE [RPT5] | 3.5 ± 0.11 |
| IGESARIIREMFAYAKE [RPT4] | 1.75 ± 0.038 |
| IGFITSGTYHLNCGNGM [POP1] | 2.92 ± 0.048 |
| IGLLNKSKSSLDGKFSL [RPN2] | 2.74 ± 0.093 |
| IGQLIGEVMKELSEEKY [RPT4] | 3.27 ± 0.042 |
| IGSTSKRPIESGTSSDP [YIL149C/MLP2] | 3.36 ± 0.064 |
| IGTINSIVHINSQERVQ [SIR2] | 1.95 ± 0.026 |
| IGTKRFDSEKSGDREVQ [RPT5] | 3.41 ± 0.12 |
| IGVETGSEPLIQQVVEY [PRP28] | 2.73 ± 0.16 |

| Sequence | protein stability index |
| --- | --- |
| IHALAAKLLQENDTTLV [FAS1] | 3.33 ± 0.18 |
| IHFADVAHITTKSPAYP [RGR1] | 2.56 ± 0.033 |
| IHFREHQSELIIKQTVH [YMR129W/POM152] | 2.21 ± 0.053 |
| IHIQSKENYPWELYTDF [POP3] | 3.12 ± 0.075 |
| IHNTKLPAYSGEIGDFF [POP1] | 3.02 ± 0.06 |
| IHQYLFQEGVVVAKKDF [RPS10A] | 2.04 ± 0.085 |
| IIESHLIQLQNIFKAEM [CSN9] | 2.74 ± 0.073 |
| IIKDYVLDIVPGSSITE [SRB4] | 3.2 ± 0.19 |
| IIKQTVHPIPDVAFADG [YMR129W/POM152] | 2.82 ± 0.043 |
| IILSIDEHHESFELKEE [RRP6] | 2.98 ± 0.088 |
| IIMHKDVEIGRMPIMLR [RET1] | 2.72 ± 0.16 |
| IINFGEIEQNTELLDEF [RPN10] | 3.17 ± 0.072 |
| IIQPFLDNSKMDYHFIF [RGR1] | 2.31 ± 0.11 |
| IITQYVFESLEINNLIQ [ARP9] | 2.96 ± 0.1 |
| IIYHTTFSWLNAELLDY [YLR018C/POM34] | 2.41 ± 0.052 |
| IIYPRSQTTLVQFGLNE [ARP9] | 1.26 ± 0.17 |
| IKIGIRVMKSLSINEKD [YCG1] | 1.56 ± 0.091 |
| IKIKSLEYEISKLKKET [YIL149C/MLP2] | 3.06 ± 0.07 |
| IKKKRKELFEKTFDYVS [SMC1] | 3.13 ± 0.084 |
| IKLVKQNDELKFQGVLE [RPC34] | 2.58 ± 0.095 |
